# Measurements from US20110282030A1 (MAYO FOUNDATION FOR MEDICAL EDUCATION AND RESEARCH, published 2011).
# Where no end group is shown, it is not given here.
# T1: human NPR-A (human, UniProt P16066 33-1061)
# T1 construct: whole, on cells; also called hNPR-A; hNPRA
# T1 sequence: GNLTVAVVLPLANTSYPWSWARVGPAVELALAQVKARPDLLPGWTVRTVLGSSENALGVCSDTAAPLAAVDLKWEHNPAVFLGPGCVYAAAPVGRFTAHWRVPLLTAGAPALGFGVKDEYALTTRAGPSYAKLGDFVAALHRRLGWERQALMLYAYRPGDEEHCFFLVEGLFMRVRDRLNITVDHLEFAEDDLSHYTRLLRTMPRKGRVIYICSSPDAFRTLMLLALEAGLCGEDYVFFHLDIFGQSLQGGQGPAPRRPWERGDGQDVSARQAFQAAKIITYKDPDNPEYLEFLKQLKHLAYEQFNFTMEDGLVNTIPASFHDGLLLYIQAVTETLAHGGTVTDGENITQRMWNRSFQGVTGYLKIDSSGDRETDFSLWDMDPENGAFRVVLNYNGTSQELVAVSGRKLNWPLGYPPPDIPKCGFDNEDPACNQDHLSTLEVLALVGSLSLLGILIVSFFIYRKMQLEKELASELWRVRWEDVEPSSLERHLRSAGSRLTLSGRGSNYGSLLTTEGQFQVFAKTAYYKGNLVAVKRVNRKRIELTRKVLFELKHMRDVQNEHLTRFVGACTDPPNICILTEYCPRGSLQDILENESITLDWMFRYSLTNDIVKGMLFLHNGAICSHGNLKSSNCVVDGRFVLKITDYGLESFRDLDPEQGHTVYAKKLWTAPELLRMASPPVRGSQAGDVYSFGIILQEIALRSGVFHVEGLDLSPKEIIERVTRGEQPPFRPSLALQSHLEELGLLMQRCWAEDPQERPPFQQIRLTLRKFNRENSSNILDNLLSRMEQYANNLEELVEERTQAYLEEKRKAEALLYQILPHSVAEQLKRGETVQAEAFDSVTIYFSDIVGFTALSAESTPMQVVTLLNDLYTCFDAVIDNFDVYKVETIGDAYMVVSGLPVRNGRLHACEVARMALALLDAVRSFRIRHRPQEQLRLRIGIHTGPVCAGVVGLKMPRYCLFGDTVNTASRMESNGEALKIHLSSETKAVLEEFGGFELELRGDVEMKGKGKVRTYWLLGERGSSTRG
# T2: human NPR-C (human, UniProt P17342 27-541)
# T2 construct: whole, on cells; also called clearance receptor
# T2 sequence: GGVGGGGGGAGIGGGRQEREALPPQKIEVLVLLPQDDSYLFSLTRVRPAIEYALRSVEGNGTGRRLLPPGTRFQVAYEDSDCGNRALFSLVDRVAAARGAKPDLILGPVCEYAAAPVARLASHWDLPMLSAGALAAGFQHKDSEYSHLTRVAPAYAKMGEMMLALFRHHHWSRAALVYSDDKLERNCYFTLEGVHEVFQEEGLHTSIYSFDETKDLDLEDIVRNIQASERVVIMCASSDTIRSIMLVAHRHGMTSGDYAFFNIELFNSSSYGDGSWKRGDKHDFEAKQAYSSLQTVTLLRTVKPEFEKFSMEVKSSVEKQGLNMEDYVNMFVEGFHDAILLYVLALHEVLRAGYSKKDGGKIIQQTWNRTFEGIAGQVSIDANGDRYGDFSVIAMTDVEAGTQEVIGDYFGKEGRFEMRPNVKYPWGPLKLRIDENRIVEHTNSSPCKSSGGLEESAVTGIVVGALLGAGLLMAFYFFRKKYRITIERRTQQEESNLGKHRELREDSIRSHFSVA
# T3: human NPR-B (human, UniProt P20594 23-1047)
# T3 sequence: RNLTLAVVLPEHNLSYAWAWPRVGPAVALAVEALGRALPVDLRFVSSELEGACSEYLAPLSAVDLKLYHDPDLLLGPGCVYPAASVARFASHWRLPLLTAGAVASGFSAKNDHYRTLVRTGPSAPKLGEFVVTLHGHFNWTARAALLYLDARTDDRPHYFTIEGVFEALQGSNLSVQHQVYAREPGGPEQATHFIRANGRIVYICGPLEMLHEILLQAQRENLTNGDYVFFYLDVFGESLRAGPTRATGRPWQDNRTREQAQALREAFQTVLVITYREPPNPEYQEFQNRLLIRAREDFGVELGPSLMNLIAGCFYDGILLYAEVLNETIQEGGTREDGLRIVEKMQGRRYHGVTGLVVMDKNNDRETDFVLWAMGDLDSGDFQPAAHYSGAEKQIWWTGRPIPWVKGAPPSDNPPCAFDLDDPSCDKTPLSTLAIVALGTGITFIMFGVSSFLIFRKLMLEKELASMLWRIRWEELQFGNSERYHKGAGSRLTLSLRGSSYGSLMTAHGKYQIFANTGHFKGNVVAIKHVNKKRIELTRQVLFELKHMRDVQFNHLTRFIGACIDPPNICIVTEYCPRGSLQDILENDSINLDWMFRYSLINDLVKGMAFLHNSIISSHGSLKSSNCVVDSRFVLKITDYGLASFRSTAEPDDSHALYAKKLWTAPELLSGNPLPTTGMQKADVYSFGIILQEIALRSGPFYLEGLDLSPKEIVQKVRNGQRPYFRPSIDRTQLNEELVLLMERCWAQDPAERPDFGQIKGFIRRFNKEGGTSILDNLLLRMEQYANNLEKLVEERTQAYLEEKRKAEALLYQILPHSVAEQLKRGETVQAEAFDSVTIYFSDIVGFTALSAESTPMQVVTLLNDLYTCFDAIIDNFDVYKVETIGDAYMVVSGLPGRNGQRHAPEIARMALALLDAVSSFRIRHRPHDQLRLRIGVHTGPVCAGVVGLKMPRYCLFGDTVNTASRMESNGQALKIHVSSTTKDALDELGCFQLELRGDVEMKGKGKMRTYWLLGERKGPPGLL
# What was measured:
# [1] = target: T1, human NPR-A; test: not told; no binding experiment of DNP on NPR-A is described
# [2] = target: T2, human NPR-C; test: displacement of ^125I-ANP from NPR-C
# [3] = target: T3, human NPR-B; test: cell-based or functional assay
# [4] = target: T1, human NPR-A; test: competition ^125I-ANP binding on whole 293 cells expressing hNPR-A
binder,measurement,setting,value
"EVKYDPCFGHKIDRINHVSNLGCPSLRDPRPNAPSTSA (ligand, ends and bridges not checked; cysteine pairing not given here, also called snake DNP polypeptide) [DNP]",binding result,[1],binds
SLRRSSCFGGRMDRIGAQSGLGCNSFRY (ligand) [Human ANP],binding result,[2],binds
GLSKGCFGLKLDRIGSMSGLGC (ligand) [Human CNP],"EC50, cellular cGMP elevation in 293 cells expressing hNPR-B",[3],38 nM
same,binding result,[2],binds
same,binding result,[4],no binding (tested: 10 µM)
